In article PMC5138414, “Structural Basis for Redox Regulation of Cytoplasmic and Chloroplastic Triosephosphate Isomerases from Arabidopsis thaliana” (Frontiers in Plant Science, 2016):

Key:
Test in all cases: SEC; analytical size-exclusion chromatography, Superdex 75 10/300GL, calibrated with Bio-Rad gel filtration standard, 0.5 mL/min, 100 mM TEA pH 7.4, 10 mM EDTA, 1 mM DTT; dimer of identical subunits
[1] = molecular target: chloroplast triosephosphate isomerase from Arabidopsis thaliana, without the predicted chloroplast targeting sequence (Arabidopsis thaliana)
[2] = molecular target: cytoplasmic triosephosphate isomerase from Arabidopsis thaliana (Arabidopsis thaliana) (UniProt P48491)
[3] = molecular target: pdTPI-C15S (Arabidopsis thaliana)
[4] = molecular target: pdTPI-C15S/C89S (Arabidopsis thaliana)
[5] = molecular target: pdTPI-C89S (Arabidopsis thaliana)

Question: With “chloroplast triosephosphate isomerase from Arabidopsis thaliana, without the predicted chloroplast targeting sequence (enzyme)” as the substance, how does the stoichiometry N [1] read?
Answer: 2

Question: With “cytoplasmic triosephosphate isomerase from Arabidopsis thaliana (from UniProt P48491 1-254) (enzyme)” as the substance, how does the stoichiometry N [2] read?
Answer: 2

Question: pdTPI-C15S (enzyme) was tested. Which stoichiometry N [3] did it give?
Answer: 2

Question: Which stoichiometry N [4] does the source give for pdTPI-C15S/C89S (enzyme) here?
Answer: 2

Question: With pdTPI-C89S (enzyme) as the substance, how does the stoichiometry N [5] read?
Answer: 2
